Experimental data as given in publication PMC7110135, “Molecular flexibility of DNA as a key determinant of RAD51 recruitment”.

Legend:
F86E RAD51 (human) = F86E RAD51 (human) (UniProt Q06609); experiment: SPR; Biotinylated ssDNA dT-50, dN-50, dA-50 and dsDNA dN-50p held on streptavidin-coated CM5 chips; F86E RAD51 injected at 30 uM; 37 C; same SPR running buffer with ATP and CaCl2. The protomer-protomer KD in solution is a single fit parameter of a simplified ODE polymerisation model, fitted to all four curves by ABC-SMC (n = 3).
[1] = biological target: T1, human wild-type (WT) RAD51 (human), Q06609; experiment: SPR; Biotinylated ssDNA (dN-X) and dsDNA (dN-Xp) held on streptavidin-coated CM5 chips; WT RAD51 injected at 150 nM or 3 uM; 37 C; 150 mM KCl, 20 mM Hepes pH 7.5, 2 mM DTT, 5 mg/ml BSA, 2.5 mM ATP, 10 mM CaCl2, 10% glycerol. The protomer-protomer KD in solution is a single fit parameter of an ODE polymerisation model, fitted to all curves by ABC-SMC (n = 3).; settings: remark: other sources report otherwise
T1 chain: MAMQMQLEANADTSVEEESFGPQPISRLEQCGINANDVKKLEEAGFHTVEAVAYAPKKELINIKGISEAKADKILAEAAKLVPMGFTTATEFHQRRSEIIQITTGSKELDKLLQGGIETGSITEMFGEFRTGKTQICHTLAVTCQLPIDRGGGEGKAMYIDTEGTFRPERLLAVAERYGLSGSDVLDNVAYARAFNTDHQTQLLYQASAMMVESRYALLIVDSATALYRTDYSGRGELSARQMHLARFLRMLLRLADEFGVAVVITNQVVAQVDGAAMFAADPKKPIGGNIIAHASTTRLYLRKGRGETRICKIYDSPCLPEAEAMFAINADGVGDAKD

RAD51 WT [2] = biological target: T2, RAD51 WT (Homo sapiens, UniProt Q06609 1-339); experiment: SPR; ATP, Ca2+; SPR (Biacore T200, streptavidin CM5): 150 mM KCl, 20 mM Hepes pH 7.5, 2 mM DTT, 5 mg/ml BSA, 2.5 mM ATP, 10 mM CaCl2, 10% glycerol, 37 C; settings: protein: recombinant, tags: untagged
RAD51 WT [3] = biological target: T2, RAD51 WT; experiment: SPR; ATP, Ca2+; faster association than dN-50; SPR (Biacore T200, streptavidin CM5): 150 mM KCl, 20 mM Hepes pH 7.5, 2 mM DTT, 5 mg/ml BSA, 2.5 mM ATP, 10 mM CaCl2, 10% glycerol, 37 C; settings: protein: recombinant; tags: untagged; chain copies: 10; label: 5' Biotin (C6)
RAD51 WT [4] = biological target: T2, RAD51 WT; experiment: SPR; 3 uM RAD51, ATP, Ca2+; slightly faster association, slow dissociation; SPR (Biacore T200, streptavidin CM5): 150 mM KCl, 20 mM Hepes pH 7.5, 2 mM DTT, 5 mg/ml BSA, 2.5 mM ATP, 10 mM CaCl2, 10% glycerol, 37 C; settings: protein: recombinant; tags: untagged; chain copies: 10; label: 3' Biotin-TEG
RAD51 WT [5] = biological target: T2, RAD51 WT; experiment: SPR; 150 nM RAD51, 2.5 mM ATP, 10 mM Ca2+; faster association than dN-50p; SPR (Biacore T200, streptavidin CM5): 150 mM KCl, 20 mM Hepes pH 7.5, 2 mM DTT, 5 mg/ml BSA, 2.5 mM ATP, 10 mM CaCl2, 10% glycerol, 37 C; settings: protein: recombinant; tags: untagged; chain copies: 10; label: 5' Biotin (C6)
RAD51 WT [6] = biological target: T2, RAD51 WT; experiment: SPR; 3 uM RAD51, ATP, Ca2+; faster association, slower dissociation than dN-8p; SPR (Biacore T200, streptavidin CM5): 150 mM KCl, 20 mM Hepes pH 7.5, 2 mM DTT, 5 mg/ml BSA, 2.5 mM ATP, 10 mM CaCl2, 10% glycerol, 37 C; settings: protein: recombinant; tags: untagged; chain copies: 16; label: 3' Biotin-TEG on strand 2; hairpin, two strands joined by (HEG)2, blunt
RAD51 WT [7] = biological target: T2, RAD51 WT; experiment: SPR; 150 nM RAD51, 2.5 mM ATP, 10 mM Ca2+; slower association than dN-50, similar lifetime; SPR (Biacore T200, streptavidin CM5): 150 mM KCl, 20 mM Hepes pH 7.5, 2 mM DTT, 5 mg/ml BSA, 2.5 mM ATP, 10 mM CaCl2, 10% glycerol, 37 C; settings: protein: recombinant; tags: untagged; chain copies: 16; label: 5' Biotin (C6) on strand 1; blunt
[8] = chain copies: 10, label: 3' Biotin-TEG

Which Kd (F86E RAD51 (human)) does the source give for “F86E RAD51 (from UniProt Q06609 1-339) (natural protein)” here?
The Kd was 10.2 µM.

B1: human wild-type (WT) RAD51, Q06609 1-339 (natural protein)
chain: T1 chain
B1 was tested. Which Kd [1] did it give?
The Kd was 0.00114 µM.

Does CGGAC (ssDNA) [ssDNA dN-5] bind (RAD51 WT [2]; [8])?
Result: no binding

Does CTGACTGC (ssDNA) [ssDNA dN-8] bind (RAD51 WT [2]; [8])?
Result: no binding

Does TTTTTTTTTTTTTTTTTTTTTTTTTTTTTTTTTTTTTTTTTTTTTTTTTT (ssDNA) [ssDNA dT-50] bind (RAD51 WT [3])?
Result: binds

Does CGTCGATAGGC (ssDNA) [ssDNA dN-11] bind (RAD51 WT [2]; [8])?
Result: no binding

Does CGTCGATGAGCAGTGTC (ssDNA) [ssDNA dN-17] bind (RAD51 WT [4])?
Result: binds

Does TTGAGAGAGCAGACCACAATTATCACCTACACGACATCATTTTATATCAA (ssDNA) [ssDNA dN-50] bind (RAD51 WT [5])?
Result: binds

B2: dsDNA dN-5p (dsDNA)
DNA 1: CGGAC
DNA 2: GTCCG
modifications: two hexaethylene glycol linkers join 3' end of strand 1 to 5' end of strand 2
Does B2 bind (RAD51 WT [2]; chain copies: 16, label: 3' Biotin-TEG on strand 2, hairpin, two strands joined by (HEG)2, blunt)?
Result: no binding

B3: dsDNA dN-11p (dsDNA)
DNA 1: CGTCGATAGGC
DNA 2: GCCTATCGACG
modifications: two hexaethylene glycol linkers join 3' end of strand 1 to 5' end of strand 2
Does B3 bind (RAD51 WT [6])?
Result: binds

B4: dsDNA dN-50p (dsDNA)
DNA 1: TCGAGAGGGTAAACCACAATTATCGCCTACCCAAAACTATTTTATATCAA
DNA 2: TTGATATAAAATAGTTTTGGGTAGGCGATAATTGTGGTTTACCCTCTCGA
Does B4 bind (RAD51 WT [7])?
Result: binds
